These results are taken from patent US20190177426A1 (BRIGHAM AND WOMEN S HOSPITAL, published 2019).

The target in test [1] is T1, human fibulin-3 (human, UniProt Q12805 18-493, limits assumed).
T1 construct: Purified human fibulin-3 in Western blot, dot blot and BIACORE (there pretreated with 10 mM DTT to dissociate multimers); The same entry is used for fibulin-3 secreted by transfected CNS1 cells and for native fibulin-3 in human tissue sections; also called Fib3; EFEMP1 gene product
T1 sequence (looked up): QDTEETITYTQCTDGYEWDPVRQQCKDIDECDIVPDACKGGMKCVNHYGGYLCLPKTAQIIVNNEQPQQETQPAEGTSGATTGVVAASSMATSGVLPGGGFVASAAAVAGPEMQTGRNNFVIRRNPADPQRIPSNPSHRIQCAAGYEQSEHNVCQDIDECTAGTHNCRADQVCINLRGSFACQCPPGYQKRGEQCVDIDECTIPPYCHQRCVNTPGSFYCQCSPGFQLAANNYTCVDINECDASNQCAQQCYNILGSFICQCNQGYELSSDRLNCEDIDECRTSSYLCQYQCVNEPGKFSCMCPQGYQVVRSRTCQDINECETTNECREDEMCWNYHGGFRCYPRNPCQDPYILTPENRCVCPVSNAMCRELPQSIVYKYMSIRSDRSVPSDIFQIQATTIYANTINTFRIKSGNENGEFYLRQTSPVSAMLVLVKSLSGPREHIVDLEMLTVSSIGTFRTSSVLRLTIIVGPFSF
Kind of test: BIACORE, antibody immobilised on the chip, purified human fibulin-3 pretreated with 10 mM DTT as analyte (200-600 nM), 1:1 model; second of two runs (lower panel). How it is done: (§1) Experiments were performed in duplicate and fit to a 1:1 binding interaction model.
(In general: Surface plasmon resonance follows binding to a sensor surface in real time, without labels.)

In test [2] the target is T1, human fibulin-3. The test can be described thus: SPR (BIACORE), antibody immobilized on the chip, purified human fibulin-3 pretreated with 10 mM DTT, duplicate, 1:1 model. How it is done:
as §1

The target of test [3] is T1, human fibulin-3. The test can be described thus: method not stated there (summary of the tests). How it is done: as §1
The target in test [4] is T1, human fibulin-3. The test can be described thus: BIACORE, antibody immobilised on the chip, purified human fibulin-3 pretreated with 10 mM DTT as analyte (200-600 nM), 1:1 model; first of two runs (upper panel). How it is done: as §1

B1: mAb428.2.3C11.H11.G3 (antibody, IgG1, V domains shown)
VH: QIQLVQSGPELKKPGETVKISCKASGYSFTTYGMSWVKQAPGKGLKWMGWINTYSGVPTYADDFKGRFAFFLETSASTAYLQINNLKNEDTATYFCARWVDYWGQGTTLTVSS
VL: DIKMTQSPSSMYASLGERVTITCKASQDIKSYLSWHQQKPWKSPKTLIYYATSLADGVPSRFSGSGSGQDYSLTISSLESDDTATYYCLQHGKSPYTFGGGTKLEIK
notes: also called mAb428.3C11; mAb428.3C11.H11.G3
Usually Kd stands for the equilibrium constant for the complex coming apart. On to B1, for which the Kd in the test with human fibulin-3 [1] is 2.03 nM; with human fibulin-3 [2], approximately 4.5 nM; with human fibulin-3 [3], 5 nM; with human fibulin-3 [4], 6.97 nM.
